# Source: IntAct's records for PubMed 25910212
# B1: Keratin, type II cytoskeletal 6A (Homo sapiens), P02538 (parent)
# chain: MASTSTTIRSHSSSRRGFSANSARLPGVSRSGFSSVSVSRSRGSGGLGGACGGAGFGSRSLYGLGGSKRISIGGGSCAISGGYGSRAGGSYGFGGAGSGFGFGGGAGIGFGLGGGAGLAGGFGGPGFPVCPPGGIQEVTVNQSLLTPLNLQIDPTIQRVRAEEREQIKTLNNKFASFIDKVRFLEQQNKVLETKWTLLQEQGTKTVRQNLEPLFEQYINNLRRQLDSIVGERGRLDSELRGMQDLVEDFKNKYEDEINKRTAAENEFVTLKKDVDAAYMNKVELQAKADTLTDEINFLRALYDAELSQMQTHISDTSVVLSMDNNRNLDLDSIIAEVKAQYEEIAQRSRAEAESWYQTKYEELQVTAGRHGDDLRNTKQEIAEINRMIQRLRSEIDHVKKQCANLQAAIADAEQRGEMALKDAKNKLEGLEDALQKAKQDLARLLKEYQELMNVKLALDVEIATYRKLLEGEECRLNGEGVGQVNISVVQSTVSSGYGGASGVGSGLGLGGGSSYSYGSGLGVGGGFSSSSGRAIGGGLSSVGGGSSTIKYTTTSSSSRKSYKH
# partner: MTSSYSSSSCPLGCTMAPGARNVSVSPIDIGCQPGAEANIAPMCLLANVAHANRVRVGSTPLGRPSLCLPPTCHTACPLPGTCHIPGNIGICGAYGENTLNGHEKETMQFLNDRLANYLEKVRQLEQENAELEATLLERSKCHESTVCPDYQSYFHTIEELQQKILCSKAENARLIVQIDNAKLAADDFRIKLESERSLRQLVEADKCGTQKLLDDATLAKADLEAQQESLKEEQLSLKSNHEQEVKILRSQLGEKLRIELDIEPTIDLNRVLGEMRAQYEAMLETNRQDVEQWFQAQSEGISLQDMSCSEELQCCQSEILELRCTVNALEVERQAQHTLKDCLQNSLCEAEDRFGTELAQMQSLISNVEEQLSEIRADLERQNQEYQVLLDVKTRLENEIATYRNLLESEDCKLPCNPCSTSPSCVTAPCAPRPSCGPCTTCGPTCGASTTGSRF
# B2: Keratin, type II cytoskeletal 6A (Homo sapiens), P02538 (parent)
# chain: B1 chain
# partner: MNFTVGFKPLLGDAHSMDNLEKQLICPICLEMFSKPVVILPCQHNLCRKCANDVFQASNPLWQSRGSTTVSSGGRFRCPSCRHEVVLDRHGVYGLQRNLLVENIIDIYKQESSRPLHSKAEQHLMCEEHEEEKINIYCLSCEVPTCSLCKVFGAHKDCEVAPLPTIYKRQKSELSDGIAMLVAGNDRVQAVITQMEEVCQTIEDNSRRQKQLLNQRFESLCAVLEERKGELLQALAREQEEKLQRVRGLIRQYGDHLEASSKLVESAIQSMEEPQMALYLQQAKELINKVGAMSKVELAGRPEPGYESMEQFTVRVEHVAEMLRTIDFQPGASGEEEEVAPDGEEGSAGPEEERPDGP
# Variants of: B1
# Conditions: with krt38_human KRT38, O76015
row,effect of a mutation on the interaction,Variant
1,with no effect,MASTSTTIRSHSSSRRGFSANSARLPGVSRSGFSSVSVSRSRGSGGLGGACGGAGFGSRSLYGLGGSKRISIGGGSCAISGGYGSRAGGSYGFGGAGSGFGFGGGAGIGFGLGGGAGLAGGFGGPGFPVCPPGGIQEVTVNQSLLTPLNLQIDPTIQRVRAEEREQIKTLNNKFASFIDKVRFLEQQNKVLETKWTLLQEQGTKTVRQNLEPLFEQYINNLRRQLDSIVGERGRLDSELRGMQDLVEDFKNKYEDEINKRTAAENEFVTLKKDVDAAYMNKVELQAKADTLTDEINFLRALYDAELSQMQTHISDTSVVLSMDNNRNLDLDSIIAEVKAQYEEIAQRSRAEAESWYQTKYEELQVTAGRHGDDLRNTKQEIAEINRMIQRLRSEIDHVKKQCANLQAAIADAEQRGEMALKDAKNKLEGLEDALQKAKQDLARLLKEYQELMNVKLALDVESATYRKLLEGEECRLNGEGVGQVNISVVQSTVSSGYGGASGVGSGLGLGGGSSYSYGSGLGVGGGFSSSSGRAIGGGLSSVGGGSSTIKYTTTSSSSRKSYKH [I462S]
2,with no effect,MASTSTTIRSHSSSRRGFSANSARLPGVSRSGFSSVSVSRSRGSGGLGGACGGAGFGSRSLYGLGGSKRISIGGGSCAISGGYGSRAGGSYGFGGAGSGFGFGGGAGIGFGLGGGAGLAGGFGGPGFPVCPPGGIQEVTVNQSLLTPLNLQIDPTIQRVRAEEREQIKTLNNKFASFIDKVRFLEQQNKVLETKWTLLQEQGTKTVRQNLEPLFEQYINNLRRQLDSIVGERGRLDSELRGMQDLVEDFKNKYEDEINKRTAAENEFVTLKKDVDAAYMNKVELQAKADTLTDEINFLRALYDAELSQMQTHISDTSVVLSMDNNRNLDLDSIIAEVKAQYEEIAQRSRAEAESWYQTKYEELQVTAGRHGDDLRNTKQEIAEINRMIQRLRSEIDHVKKQCANLQAAIADAEQRGEMALKDAKNKLEGLEDALQKAKQDLARLLKEYQELMNVKLALDVEIPTYRKLLEGEECRLNGEGVGQVNISVVQSTVSSGYGGASGVGSGLGLGGGSSYSYGSGLGVGGGFSSSSGRAIGGGLSSVGGGSSTIKYTTTSSSSRKSYKH [A463P]
3,with no effect,MASTSTTIRSHSSSRRGFSANSARLPGVSRSGFSSVSVSRSRGSGGLGGACGGAGFGSRSLYGLGGSKRISIGGGSCAISGGYGSRAGGSYGFGGAGSGFGFGGGAGIGFGLGGGAGLAGGFGGPGFPVCPPGGIQEVTVNQSLLTPLNLQIDPTIQRVRAEEREQIKTLNNKVASFIDKVRFLEQQNKVLETKWTLLQEQGTKTVRQNLEPLFEQYINNLRRQLDSIVGERGRLDSELRGMQDLVEDFKNKYEDEINKRTAAENEFVTLKKDVDAAYMNKVELQAKADTLTDEINFLRALYDAELSQMQTHISDTSVVLSMDNNRNLDLDSIIAEVKAQYEEIAQRSRAEAESWYQTKYEELQVTAGRHGDDLRNTKQEIAEINRMIQRLRSEIDHVKKQCANLQAAIADAEQRGEMALKDAKNKLEGLEDALQKAKQDLARLLKEYQELMNVKLALDVEIATYRKLLEGEECRLNGEGVGQVNISVVQSTVSSGYGGASGVGSGLGLGGGSSYSYGSGLGVGGGFSSSSGRAIGGGLSSVGGGSSTIKYTTTSSSSRKSYKH [F174V]

# Variants of: B2
# Conditions: with tri54_human TRIM54, Q9BYV2
row,effect of a mutation on the interaction,Variant
1,with no effect,MASTSTTIRSHSSSRRGFSANSARLPGVSRSGFSSVSVSRSRGSGGLGGACGGAGFGSRSLYGLGGSKRISIGGGSCAISGGYGSRAGGSYGFGGAGSGFGFGGGAGIGFGLGGGAGLAGGFGGPGFPVCPPGGIQEVTVNQSLLTPLNLQIDPTIQRVRAEEREQIKTLNNKFASFIDKVRFLEQQNKVLETKWTLLQEQGTKTVRQNLEPLFEQYINNLRRQLDSIVGERGRLDSELRGMQDLVEDFKNKYEDEINKRTAAENEFVTLKKDVDAAYMNKVELQAKADTLTDEINFLRALYDAELSQMQTHISDTSVVLSMDNNRNLDLDSIIAEVKAQYEEIAQRSRAEAESWYQTKYEELQVTAGRHGDDLRNTKQEIAEINRMIQRLRSEIDHVKKQCANLQAAIADAEQRGEMALKDAKNKLEGLEDALQKAKQDLARLLKEYQELMNVKLALDVEIATYRKLLEGEECRLNGEGVGQVNISVVQSTVSSGYGGASGVGSGLGLGGGSSYSYGSGLGVGGGFSSSSGRAIGGGLSSVGGGSSTIKYSTTSSSSRKSYKH [T552S]
2,with no effect,MASTSTTIRSHSSSRRGFSANSARLPGVSRSGFSSVSVSRSRGSGGLGGACGGAGFGSRSLYGLGGSKRISIGGGSCAISGGYGSRAGGSYGFGGAGSGFGFGGGAGIGFGLGGGAGLAGGFGGPGFPVCPPGGIQEVTVNQSLLTPLNLQIDPTIQRVRAEEREQIKTLNNKFASFIDKVRFLEQQNKVLETKWTLLQEQGTKTVRQNLEPLFEQYINNLRRQLDSIVGERGRLDSELRGMQDLVEDFKNKYEDEINKRTAAENEFVTLKKDVDAAYMNKVELQAKADTLTDEINFLRALYDAELSQMQTHISDTSVVLSMDNNRNLDLDSIIAEVKAQYEEIAQRSRAEAESWYQTKYEELQVTAGRHGDDLRNTKQEIAEINRMIQRLRSEIDHVKKQCANLQAAIADAEQRGEMALKDAKNKLEGLEDALQKAKQDLARLLKEYQELMNVKLALDVEIATYRKLLEGEECRLNGEGVGQVNISVVQSTVSSGYGGASGVGSGLGLGGGSSYSYGSGLGFGGGFSSSSGRAIGGGLSSVGGGSSTIKYTTTSSSSRKSYKH [V523F]
3,disrupting interaction strength,MASTSTTIRSHSSSRRGFSANSARLPGVSRSGFSSVSVSRSRGSGGLGGACGGAGFGSRSLYGLGGSKRISIGGGSCAISGGYGSRAGGSYGFGGAGSGFGFGGGAGIGFGLGGGAGLAGGFGGPGFPVCPPGGIQEVTVNQSLLTPLNLQIDPTIQRVRAEEREQIKTLNNKFASFIDKVRFLEQQNKVLETKWTLLQEQGTKTVRQNLEPLFEQYINNLRRQLDSIVGERGRLDSELRGMQDLVEDFKNKYEDEINKRTAAENEFVTLKKDVDAAYMNKVELQAKADTLTDEINFLRALYDAELSQMQTHISDTSVVLSMDNNRNLDLDSIIAEVKAQYEEIAQRSRAEAESWYQTKYEELQVTAGRHGDDLRNTKQEIAEINRMIQRLRSEIDHVKKQCANLQAAIADAEQRGEMALKDAKNKLEGLEDALQKAKQDLARLLKEYQELMNVKLALDVEIPTYRKLLEGEECRLNGEGVGQVNISVVQSTVSSGYGGASGVGSGLGLGGGSSYSYGSGLGVGGGFSSSSGRAIGGGLSSVGGGSSTIKYTTTSSSSRKSYKH [A463P]
